In the supplement of paper PMC10567573:

B1: NCK2 (parent)
chain: YTGPSSSGRFAGREWYYGNVTRHQ
B2: SPOPL (parent)
chain: PDDKLTLFCEVSVVQDSVNISGHT

Variants of: B1
Experiment: protein stability index of a GFP-peptide fusion (GPS, HEK-293T) (PSI 1-6); higher = more stable
Details: c terminus: a fixed tail appended
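Also: lentivirally expressed fusions sorted by FACS into six bins by GFP to DsRed ratio, PSI derived from sequencing read proportions per bin multiplied by bin number.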

Variant	protein stability index
YTGPRSSGRFAGREWYYGNVTRHQ	2.03
YTGPQSSGRFAGREWYYGNVTRHQ	1.97
YTGPVSSGRFAGREWYYGNVTRHQ	1.4
YTGPISSGRFAGREWYYGNVTRHQ	2.13
YTGPMSSGRFAGREWYYGNVTRHQ	2.96
YTGPGSSGRFAGREWYYGNVTRHQ	2.46
YTGPESSGRFAGREWYYGNVTRHQ	1.62
YTGPHSSGRFAGREWYYGNVTRHQ	1.92
YTGPYSSGRFAGREWYYGNVTRHQ	3.23
YTGPLSSGRFAGREWYYGNVTRHQ	2.56
YTGPTSSGRFAGREWYYGNVTRHQ	1.86
YTGPNSSGRFAGREWYYGNVTRHQ	1.95
YTGPCSSGRFAGREWYYGNVTRHQ	1.31
YTGPFSSGRFAGREWYYGNVTRHQ	2.77
YTGPASSGRFAGREWYYGNVTRHQ	2.6
YTGPWSSGRFAGREWYYGNVTRHQ	3.56
YTGPKSSGRFAGREWYYGNVTRHQ	1.7
YTGPDSSGRFAGREWYYGNVTRHQ	1.96
YTRPSSSGRFAGREWYYGNVTRHQ	2.17
YTKPSSSGRFAGREWYYGNVTRHQ	2.08
YTWPSSSGRFAGREWYYGNVTRHQ	2.99
YTEPSSSGRFAGREWYYGNVTRHQ	2.34
YTDPSSSGRFAGREWYYGNVTRHQ	2.38
YTAPSSSGRFAGREWYYGNVTRHQ	2.23
YTMPSSSGRFAGREWYYGNVTRHQ	1.88

Variant	protein stability index
YTSPSSSGRFAGREWYYGNVTRHQ	2.04
YTFPSSSGRFAGREWYYGNVTRHQ	2.25
YTLPSSSGRFAGREWYYGNVTRHQ	1.81
YTCPSSSGRFAGREWYYGNVTRHQ	1.83
YTHPSSSGRFAGREWYYGNVTRHQ	1.71
YTTPSSSGRFAGREWYYGNVTRHQ	1.54
YTNPSSSGRFAGREWYYGNVTRHQ	2.17
YTQPSSSGRFAGREWYYGNVTRHQ	1.78
YTIPSSSGRFAGREWYYGNVTRHQ	2.07
YTVPSSSGRFAGREWYYGNVTRHQ	2.25
YTYPSSSGRFAGREWYYGNVTRHQ	2.13
YTPPSSSGRFAGREWYYGNVTRHQ	1.56
WTGPSSSGRFAGREWYYGNVTRHQ	2.66
TTGPSSSGRFAGREWYYGNVTRHQ	3.08
ETGPSSSGRFAGREWYYGNVTRHQ	3.28
QTGPSSSGRFAGREWYYGNVTRHQ	2.96
LTGPSSSGRFAGREWYYGNVTRHQ	2.3
MTGPSSSGRFAGREWYYGNVTRHQ	2.57
VTGPSSSGRFAGREWYYGNVTRHQ	2.93
ITGPSSSGRFAGREWYYGNVTRHQ	2.08
FTGPSSSGRFAGREWYYGNVTRHQ	1.47
GTGPSSSGRFAGREWYYGNVTRHQ	2.46
STGPSSSGRFAGREWYYGNVTRHQ	2.12
NTGPSSSGRFAGREWYYGNVTRHQ	2.73
RTGPSSSGRFAGREWYYGNVTRHQ	2.55

Variant	protein stability index
DTGPSSSGRFAGREWYYGNVTRHQ	3.3
CTGPSSSGRFAGREWYYGNVTRHQ	2.01
KTGPSSSGRFAGREWYYGNVTRHQ	2.75
HTGPSSSGRFAGREWYYGNVTRHQ	2.48
PTGPSSSGRFAGREWYYGNVTRHQ	3.8
ATGPSSSGRFAGREWYYGNVTRHQ	3.25
YTGFSSSGRFAGREWYYGNVTRHQ	1.82
YTGASSSGRFAGREWYYGNVTRHQ	2.13
YTGSSSSGRFAGREWYYGNVTRHQ	1.79
YTGCSSSGRFAGREWYYGNVTRHQ	3.83
YTGTSSSGRFAGREWYYGNVTRHQ	1.9
YTGRSSSGRFAGREWYYGNVTRHQ	3.61
YTGHSSSGRFAGREWYYGNVTRHQ	2.48
YTGKSSSGRFAGREWYYGNVTRHQ	2.4
YTGDSSSGRFAGREWYYGNVTRHQ	1.56
YTGLSSSGRFAGREWYYGNVTRHQ	1.64
YTGNSSSGRFAGREWYYGNVTRHQ	2.32
YTGVSSSGRFAGREWYYGNVTRHQ	1.36
YTGYSSSGRFAGREWYYGNVTRHQ	3.08
YTGWSSSGRFAGREWYYGNVTRHQ	1.71
YTGGSSSGRFAGREWYYGNVTRHQ	1.99
YTGISSSGRFAGREWYYGNVTRHQ	1.03
YTGMSSSGRFAGREWYYGNVTRHQ	2.37
YTGQSSSGRFAGREWYYGNVTRHQ	1.26
YTGESSSGRFAGREWYYGNVTRHQ	2.31

Variant	protein stability index
YEGPSSSGRFAGREWYYGNVTRHQ	2.82
YHGPSSSGRFAGREWYYGNVTRHQ	1.88
YIGPSSSGRFAGREWYYGNVTRHQ	1.79
YVGPSSSGRFAGREWYYGNVTRHQ	2.32
YCGPSSSGRFAGREWYYGNVTRHQ	2.06
YWGPSSSGRFAGREWYYGNVTRHQ	2.35
YSGPSSSGRFAGREWYYGNVTRHQ	1.37
YRGPSSSGRFAGREWYYGNVTRHQ	1.67
YAGPSSSGRFAGREWYYGNVTRHQ	2.62
YKGPSSSGRFAGREWYYGNVTRHQ	2.27
YFGPSSSGRFAGREWYYGNVTRHQ	2.04
YYGPSSSGRFAGREWYYGNVTRHQ	2.67
YQGPSSSGRFAGREWYYGNVTRHQ	1.5
YNGPSSSGRFAGREWYYGNVTRHQ	2.19
YLGPSSSGRFAGREWYYGNVTRHQ	1.7
YDGPSSSGRFAGREWYYGNVTRHQ	2.63
YMGPSSSGRFAGREWYYGNVTRHQ	2.62
YGGPSSSGRFAGREWYYGNVTRHQ	2.44
YPGPSSSGRFAGREWYYGNVTRHQ	3.3
YTGPSASGRFAGREWYYGNVTRHQ	2.09
YTGPSDSGRFAGREWYYGNVTRHQ	1.91
YTGPSCSGRFAGREWYYGNVTRHQ	1.69

Variants of: B2
Experiment: as above
Details: c terminus: a fixed tail appended

Variant	protein stability index
PDDKLTLFCEVSVVQDSVNVSGHT	2.55
PDDKLTLFCEVSVVQDSVNSSGHT	3.04
PDDKLTLFCEVSVVQDSVNPSGHT	2.59
PDDKLTLFCEVSVVQDSVNYSGHT	2.18
PDDKLTLFCEVSVVQDSVNQSGHT	3.49
PDDKLTLFCEVSVVQDSVNCSGHT	2.86
PDDKLTLFCEVSVVQDSVNHSGHT	3.43
PDDKLTLFCEVSVVQDSVNNSGHT	3.08
PDDKLTLFCEVSVVQDSVNLSGHT	2.56
PDDKLTLFCEVSVVQDSVNTSGHT	3.2
PDDKLTLFCEVSVVQDSVNFSGHT	1.31
PDDKLTLFCEVSVVQDSVNWSGHT	2.04
PDDKLTLFCEVSVVQDSVNASGHT	2.74
PDDKLTLFCEVSVVQDSVNDSGHT	3.77
PDDKLTLFCEVSVVQDSVNMSGHT	1.78
PDDKLTLFCEVSVVQDSVNGSGHT	3.21
PDDKLTLFCEVSVVQDSVNKSGHT	2.56
PDDKLTLFCEVSVVQDSVNESGHT	3.42
PDDKLTLFCEVSVVQDSVNIEGHT	2.44
PDDKLTLFCEVSVVQDSVNIPGHT	2.29
PDDKLTLFCEVSVVQDSVNICGHT	1.5
PDDKLTLFCEVSVVQDSVNILGHT	1.68
PDDKLTLFCEVSVVQDSVNIAGHT	2.29

Variant	protein stability index
PDDKLTLFCEVSVVQDSVNIDGHT	3.2
PDDKLTLFCEVSVVQDSVNINGHT	2.2
PDDKLTLFCEVSVVQDSVNIMGHT	2.48
PDDKLTLFCEVSVVQDSVNIYGHT	1.85
PDDKLTLFCEVSVVQDSVNIHGHT	1.61
PDDKLTLFCEVSVVQDSVNIRGHT	2.47
PDDKLTLFCEVSVVQDSVNIGGHT	2.74
PDDKLTLFCEVSVVQDSVNITGHT	3.16
PDDKLTLFCEVSVVQDSVNIIGHT	3.25
PDDKLTLFCEVSVVQDSVNIQGHT	3.3
PDDKLTLFCEVSVVQDSVNISGNT	2.6
PDDKLTLFCEVSVVQDSVNISGPT	2.26
PDDKLTLFCEVSVVQDSVNISGLT	1.69
PDDKLTLFCEVSVVQDSVNISGAT	2
PDDKLTLFCEVSVVQDSVNISGQT	2.3
PDDKLTLFCEVSVVQDSVNISGWT	5.02
PDDKLTLFCEVSVVQDSVNISGKT	2.21
PDDKLTLFCEVSVVQDSVNISGRT	2.71
PDDKLTLFCEVSVVQDSVNISGGT	2.01
PDDKLTLFCEVSVVQDSVNISGET	3.21
PDDKLTLFCEVSVVQDSVNISGST	2.18
PDDKLTLFCEVSVVQDSVNISGDT	3.06
PDDKLTLFCEVSVVQDSVNISGIT	2.41

Variant	protein stability index
PDDKLTLFCEVSVVQDSVNISGTT	2.44
PDDKLTLFCEVSVVQDSVNISGCT	2
PDDKLTLFCEVSVVQDSVNISGVT	2.03
PDDKLTLFCEVSVVQDSVNISGHH	2.4
PDDKLTLFCEVSVVQDSVNISGHD	2.46
PDDKLTLFCEVSVVQDSVNISGHN	2.97
PDDKLTLFCEVSVVQDSVNISGHS	2.38
PDDKLTLFCEVSVVQDSVNISGHQ	2.06
PDDKLTLFCEVSVVQDSVNISGHE	3.45
PDDKLTLFCEVSVVQDSVNISGHP	3.77
PDDKLTLFCEVSVVQDSVNISGHA	1.54
PDDKLTLFCEVSVVQDSVNISGHF	1.74
PDDKLTLFCEVSVVQDSVNISGHG	1.51
PDDKLTLFCEVSVVQDSVNISGHI	2.27
PDDKLTLFCEVSVVQDSVNISGHW	3.64
PDDKLTLFCEVSVVQDSVNISGHK	3.16
PDDKLTLFCEVSVVQDSVNISGHM	2.39
PDDKLTLFCEVSVVQDSVNISDHT	2.87
PDDKLTLFCEVSVVQDSVNISNHT	1.98
PDDKLTLFCEVSVVQDSVNISEHT	3.28
PDDKLTLFCEVSVVQDSVNISFHT	3.28
PDDKLTLFCEVSVVQDSVNISHHT	1.66
PDDKLTLFCEVSVVQDSVNISTHT	3.74

Variant	protein stability index
PDDKLTLFCEVSVVQDSVNISAHT	1.08
PDDKLTLFCEVSVVQDSVNISSHT	2.05
PDDKLTLFCEVSVVQDSVNISKHT	2.1
PDDKLTLFCEVSVVQDSVNISQHT	2.97
PDDKLTLFCEVSVVQDSVNISPHT	2.07
PDDKLTLFCEVSVVQDSVNISCHT	2.59
PDDKLTLFCEVSVVQDSVVISGHT	2.65
PDDKLTLFCEVSVVQDSVDISGHT	2.41
PDDKLTLFCEVSVVQDSVCISGHT	1.05
PDDKLTLFCEVSVVQDSVGISGHT	1.74
PDDKLTLFCEVSVVQDSVRISGHT	1.2
PDDKLTLFCEVSVVQDSVAISGHT	2.53
PDDKLTLFCEVSVVQDSVQISGHT	1.39
PDDKLTLFCEVSVVQDSVIISGHT	1.39
PDDKLTLFCEVSVVQDSVPISGHT	2.29
PDDKLTLFCEVSVVQDSVKISGHT	1.92
PDDKLTLFCEVSVVQDSVTISGHT	1.35
PDDKLTLFCEVSVVQDSVSISGHT	3.03
PDDKLTLFCEVSVVQDSRNISGHT	2.03
PDDKLTLFCEVSVVQDSSNISGHT	2.82
PDDKLTLFCEVSVVQDSTNISGHT	2.81
PDDKLTLFCEVSVVQDSYNISGHT	1.77
